19 molecules from patent US20050069542A1 (Human Genome Sciences, published 2005) can be followed below.

T1: flag-tagged soluble TL3 (amino acids 105-251 of SEQ ID NO:234) (Homo sapiens (Human), UniProt O75888 105-250)
T1 construct: Heterologous flag-tagged control protein, immobilized in the ELISA; also called flagged tagged TL-3; not shown: Flag tag
T1 sequence: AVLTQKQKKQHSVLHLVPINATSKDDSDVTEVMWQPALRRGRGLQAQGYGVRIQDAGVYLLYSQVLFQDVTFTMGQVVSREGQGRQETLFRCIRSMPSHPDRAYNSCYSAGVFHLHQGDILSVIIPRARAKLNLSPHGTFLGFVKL

B1: GMBC689 (scFv)
scFv: QVQLVESGGGLVKPGGSLRLSCAASGFTFSDAWMNWVRQAPGKGLEWVGRIKSKGSGGTIDYAAPVKDRFTISRDDSKNTLYLQMNSLKTEDTALYYCTWDWDFYYGMNVWGQGTLVTVSSGGGGSGGGGSGGGGSQSVLTQPPSASGSPGQSVTISCTGTSSDVGGYNYVSWYQQHPGKAPKFMIYDVSKRPSGVSNRFSGSKSGNTASLTISGVQAEDEADYYCSSYTSASTVVFGGGTKLTVLG
B2: GMCC107 (scFv)
scFv: QVQLVQSGAEVKKPGASVKVSCRTSGYTFTDHSMHWVRQAPGQRFEWMGWIGADSGSTQYSRNFQGRLTIGRDTSASTVYMELTSLRSEDTAVYYCARVGGGQGWYSGMDVWGRGTLVTVSSGGGGSGGGGSGGGGSAQAVLTQPSSVSGAPGQRVTISCTGSSSNIGASYDVHWYQQLPGTAPKLLIYNNNNRPSGVPDRFSGSRSGTSASLAITGLQAEDEADYYCHSYDSNLSGDVFGSGTKLTVLG
B3: GMCC110 (scFv)
scFv: QVQLQESGPGLVKPSQTLSLTCTVSGASISSGGYRWIWIRQHPGQGLEWIGDIHYSGSTQYNPSLKSRVALTLDRSKNQFSLQLSSVTAADTAVYYCARDPRGHTYGYGYYFDYWGKGTLVTVSSGGGGSGGGGSGGGGSALSSELTQDPDVSVALGQTVTITCQGDRLRRYYASWYQQKPGQAPVLVIFRKNNRPSGIPDRFSGSSSGDTASLTITGAQAEDEADYYCNSRDTSGTLSFGGGTQLTVLS
B4: GMCC114 (scFv)
scFv: EVQLVESGPEVKKPGSSVKVSCKASGAAAFSSYAISWVRQAPGRGLEWMGGIIPISDTPKYAHKFQGRVTITADESTTTVFMEVSGLRSDDTAVYYCATTTRYGSGTYDYMDVWGQGTMVTVSSGGGGSGGGGSGGGGSALSSELTQDPAVSVALGQTVRITCQGDSLRSYYASWYQQKPGQAPVLVFYGKNKRPSGIPDRFSGSTSGNTASLSITGALADDEADYYCHSRDTSGAQILFGGGTKLTVLG
B5: GMCC118 (scFv)
scFv: EVQLVQSGGGLVKPGGSLRLSCTASGFSFTNAWMSWVRQAPGKGLEWVGRIKSRNDGGATDYAAPVKGRFTISRDDSKNTLYLQMNSLKTDDTAVYYCTTDNFPLRFLEWLSHPDYWGQGTMVTVSSGGGGSGGGGSGGGGSAQAVLTQPSSVSVSPGQTVTITCSGEKLDNKYISWYQQRPGRSPILVIYQDRKRPSGIPERFSGSNSGNTATLTITGSQPLDEADYYCQAWDSSTAWEFGGGTKLTVLG
B6: GMBC691 (scFv)
scFv: EVQLVQSGAEVKKPGASMKVSCKTSGDTFNGFYVHWVRQAPGQGLEWMGRINPNGGGTNYAQKFQGRVTMTRDTSMNTAYMELRSLRSDDTAVYYCARDLFYDFWSDYYRNDQYYYMDVWGRGTLVTVSSGGGGSGGGGSGGGGSSELTQDPAVSVALGQTVRITCQGDSLRSYYASWYQQKPGQAPVLVIYGKNNRPSGIPDRFSGSSSGNTASLTITGAQAEDEADYYCNSRDSSGNHVVFGGGTKLTVLG
B7: GMCC108 (scFv)
scFv: EVQLVQSGAEVKEPGASVTVSCKASGYTFISYHMHWVRQAPGQGLEWMGIINPSGGDTTYAQKFQGRVTMTRDTSTSTVYMELRSLRFEDTARYYCARDLKFYDFRSGKYQDYGMDVWGQGTLVTVSSGGGGSGGGGSGGGGSAQSVLTQPPSLSVAPGQTASITCGGNDIGTKSVHWYQLKPGQAPVLVVYDNRDRPSGIPERFSGSNSGNTATLTISRVEGGDEADYYCQVWDSSIDHSEYVFGTGTKLTVLG
B8: GMCC124 (scFv)
scFv: QVTLKESGAEVKKPGASVKVSCKASGYTFTDNALHWVRQAPGQRPEWMAWINTANGNTRYSQKFQGRLTITRDTSASTAFMDLSSLRSEDTAVYYCARQKAYKNYYYYYGMDVWGQGTLVTVSSGGGGSGGGGSGGGGSAQSVVTQPPSVSAAPGQKVTISCSGSSSNIGNNYVSWYQQLPGTAPKLLIYENNKRPSGIPDRFSGSQSGTSATLGISGLQTGDEADYYCGTWDSSLRAGVFGGGTKLTVLG
B9: GMCC101 (scFv)
scFv: EVQLVQSGAEVKKPGSSVKVSCKASGGTFRTYAITWVRQAPGQGLEWMGGIIPISATANYAQKFQGRVTITADESMSTAYMELSSLRSEDTAVYYCARDREPHYFDNWGRGTMVTVSSGGGGSGGGGSGGGGSALPVLTQPPSVSEAPRQGVTISCSGSSSNIGNNAVSWYQQLPGQAPKLLIYYDDLLPSGVSDRFSASKSGTSASLAISGLQSEDEADYYCAAWDDSLNGVIFGGGTQLTVLS
B10: GMCC105 (scFv)
scFv: QVQLVQSGGGVVQPGRSLRLSCTASGFNLGSHGMHWVRQAPGKGLEWVAVIGFDGTTKYYVDSVKGRFTISRDNSRNTLSLQMNSLRAEDTAVYYCVREDYYYDSSGYYFDYWGRGTLVTVSSGGGGSGGGGSGGGGSALSSELTQDPFVSVALGQTVRIACRGDSLRDSYASWYQQKPGQAPRLLVYGNNLRPSGIPGRFSGSSSGDTASLSITETQAGDEADYYCSSRGNSTSRLYVFGTGTKLTVLG
B11: GMBC696 (scFv)
scFv: EVQLVQSRAEVKKPGASVKVSCKTSGYTFNGYYIHWVRQAPGQGLEWMGWIDPINSVTNYAQNFQGRVTMTRDTSINTAYMELSRLTSDDTAVYYCARARVSTILQYWGQGTLVTVSSGGGGSGGGGSGGGGSSELTQDPAVSVALGQTVRITCQGDSLRSYYASWYQQKPGQAPVLVIYGKNNRPSGIPDRFSGSSSGNTASLTITGAQAEDEADYYCNSRDSSGNHVVFGGGTKLTVLG
B12: GMBC612 (scFv)
scFv: EVQLVESGGGVVQPGGSLRLSCAASGFSFSSYGMQWVRQAPGKGLEWVAFIRYDGSIKYYADSVKGRFTVSRDNSKNTLYLQMNSLRAEDTAVYYCARGYRIVDYWGQGTLVTVSSGGGGSGGGGSGGGGSDIQMTQSPSTLSPSIGDRVTITCRASEGIYHWLAWYQQKPGKAPKLLIYKASSLASGAPSRFSGSGSGTDFTLTISSLQPDDFATYYCQQYSNYPLTFGGGTKLEIKR
B13: GMBC610 (scFv)
scFv: QVTLKESGAEVKKPGASVKVSCKTSGFTFGAYYIHWVRQVPGQGLEWMGWIDPNNGGTNYAQKFQGRVTMTRDMSTTTTYMEVSGLHSDDTAVYYCARARVATILEYWGRGTLVTVSSGGGGSGGGGSGGGGSPELTQDPAVSVALGQTVRITCQGDSLRSYYASWYQQKPGQAPVLVIYGKNNRPSGIPDRFSGSSSGNTASLTITGAQAEDEADYYCNSRDSSGNHVVFGGGTKLTVLG
B14: GMCC125 (scFv)
scFv: EVQLVQSGGGLVKPGGSLRLSCAASGFSFSDYSMHWIRQAPGKGLEWLSHIGTSTSYTNYADSVKGRFTISRDNAKNSFYLQMNSLRVDDTAVYFCARGFGGLRGYFDYWGQGTLVTVSSGGGGSGGGGSGGGGSALSSELTQDPAVSVALGQTVKITCQGDRLRRFYASWYQQKPGQAPLLLIYGKNSRPSGIPDRFSGSTSGATASLTITGAQAEDEADYYCNSRDSSGSLHSVFGTGTKVTVLG
B15: GMCC126 (scFv)
scFv: QVQLQESGPGLVKPSQTLSLSCAVSGFSVTSGHYWGWIRQSPGKGLEWIGNIYHTGSTRYNPSLESRVSMSVDTSKNQFSLRLTSVTAADTAIYYCARVGRGQHLVRGDFDYWGRGTLVTVSSGGGGSGGGGSGGGGSAQSVLTQPPSISVSPGQTASITCSGDELGHKYASWYQQKPGQSPVVVVYQDNKRPSGIPERFSGSSSGNTATLTISGTQAVDEADYFCQAWDSSAVVFGGGTKLTVLG
B16: GMBC730 (scFv)
scFv: QVQLVESGGDSVKPGGSLRLSCAGSGFTFSDAWMNWVRQAPGKGLEWVGRMKSKGSGGTRDYAAPVNGRFTISRDDSKNTLYLQMNSLNTEDTGVYYCTWDWDFYYGMDVWGKGTTVTVSSGGGGSGGGGSGGGGSQSVLTQPASVSGSPGQSITISCTGTSSDVGGYNYVSWYQQHPGKAPKLMIYEGSKRPSGVSNRFSGSKSGNTASLTISGLQAEDEADYYCSSYTTRSTRVFGGGTKLTVLG
B17: GMCC106 (scFv)
scFv: QVQLQESGPGLVKPSGTLSLTCAVSVGSINESNWWSWVRQSPGKGLEWIGEIYPTGTTNYNPSLESRVTISVDKSRNLFSLKLKSVTAADSAMYFCARDRWAGGFDLWGRGTMVTVSSGGGGSGGGGSGGGGSAQSVLTQPPSASGTPGQRVTISCSGSSSNIGSNSVYWYQQLPGTAPKLLIYRNNQRPSGVPDRFSASKSGTSASLAISGLRSEDEADYYCAAWDDSLSGLVFGGGTKLTVLG
B18: GMCC119 (scFv)
scFv: EVQLVQSGPEVKKPGASVKVSCKASNYTFTTYDISWVRQAPGQGLEWMGWISTYSGNTKYAQKFQGRVTMTRDTSTSAAYMELRNLRSDDTAVYFCARDIRVWRGSGSVHYFDPWGRGTTVTVSSGGGGSGGGGSGGGGSAQSALTQPRSVSGSPGQSVTISCTGTSNDVGGYNFVSWYQQHPGKAPKLMVYNVSKRPSGVPDRFSGSKSGNTASLTISGLQAEDEADYYCSSYAHSYTLVFGGGTKVTVLG
B19: GMCC112 (scFv)
scFv: QVQLVQSGGGLVQPGGSLRLSCAASGFSFSTYAMSWVRQAPGKGLEWVSGVSDGGDTFYADSVRGRFTLSRDNAKNTLFLQMNSLTAEDTATYYCAKEIARIGVPNFDHWGQGTLVTVSSGGGGSGGGGSGGGGSALETTLTQSPGTLSLSPGDRATLSCRASQSIRNNDVAWYQQKPGQAPRLLIYSASRRATDIPDRFSGSASGTDFTLTISRLEPEDFAMYYCQQYGGSASFGQGTRLEIKR

The target in this assay is T1, flag-tagged soluble TL3 (amino acids …). Put plainly: phage ELISA on immobilized flag-tagged soluble TL3. The method, boiled down:
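Phage displaying scFvs selected against flag-tagged GMAD were screened by ELISA against immobilized flag-tagged soluble TL3 (residues 105-251) as a heterologous flag-tagged counter-target, to check that binding is GMAD-specific.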
Background: ELISA stands for enzyme-linked immunosorbent assay.
As for B1, the binding result is “no binding”.

For B2, the binding result is on record as “no binding”.

B3: the binding result is given as “no binding”.

Take B4: the binding result is listed as “no binding”.

In the case of B5, the binding result was “no binding”.

B6: the binding result is recorded as “no binding”.

Regarding B7, the binding result is “no binding”.

On to B8, for which the binding result is recorded as “no binding”.

Consider B9, for which the binding result is “no binding”.

For B10, the binding result is recorded as “no binding”.

Turning to B11, the binding result is “no binding”.

For the molecule B12, the binding result is listed as “no binding”.

B13: the binding result was “no binding”.

For the molecule B14, the binding result is recorded as “no binding”.

Turning to B15, the binding result is given as “no binding”.

In the case of B16, the binding result is reported as “no binding”.

In the case of B17, the binding result was “no binding”.

For B18, the binding result is “no binding”.

For B19, the binding result is “no binding”.
